Laboratory results: patent US20140087995A1 (published 2014)
Numbered stars: 1 amine (or outer) side, 2 acyl side, 3 side chain; on linkers, the order of the positions; unused ones are H or OH. Bridge positions count the residues as written; N and C are the ends. Side chains are listed from the residue outwards. Ends that are not written are not given here. * marks the point of attachment. C20 diacid = O=C(O)CCCCCCCCCCCCCCCCCCC(=O)*; γGlu = O=C(O)[C@H](CCC(=O)[*:2])N[*:1]

T1: rat calcitonin receptor (rat, UniProt P32214 25-516)
T1 construct: whole, on cells; Membranes prepared from transiently transfected BHK tk'ts 13 cells; also called rCTR; rat calcitonin (a) receptor
T1 sequence (looked up): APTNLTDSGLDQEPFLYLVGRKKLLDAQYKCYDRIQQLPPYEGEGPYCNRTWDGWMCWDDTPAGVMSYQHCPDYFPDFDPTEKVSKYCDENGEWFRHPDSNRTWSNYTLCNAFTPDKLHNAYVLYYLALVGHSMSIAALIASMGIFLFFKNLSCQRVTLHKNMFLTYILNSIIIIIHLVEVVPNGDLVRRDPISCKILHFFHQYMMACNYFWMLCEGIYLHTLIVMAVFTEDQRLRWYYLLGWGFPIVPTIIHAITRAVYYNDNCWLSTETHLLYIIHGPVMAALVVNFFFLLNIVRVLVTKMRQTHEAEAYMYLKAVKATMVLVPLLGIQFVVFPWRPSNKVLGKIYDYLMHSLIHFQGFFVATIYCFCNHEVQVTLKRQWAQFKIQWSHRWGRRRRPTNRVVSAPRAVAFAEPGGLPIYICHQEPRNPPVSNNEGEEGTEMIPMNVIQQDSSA

T2: rat amylin receptor (rat calcitonin receptor + rat RAMP 3) (rat, UniProt P32214 25-516; Q9JJ73 23-147)
T2 construct: whole, on cells; Membranes prepared from transiently transfected BHK tk'ts 13 cells; also called rAmylin-R; rat amylin 3(a) receptor
T2 sequence (looked up) 1: T1 sequence (looked up)
T2 sequence (looked up) 2: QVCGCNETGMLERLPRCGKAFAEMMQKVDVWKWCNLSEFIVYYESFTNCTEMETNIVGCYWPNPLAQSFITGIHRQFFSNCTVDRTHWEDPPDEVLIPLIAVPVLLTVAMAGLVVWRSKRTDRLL

T3: human calcitonin receptor (human, UniProt P30988 25-474)
T3 construct: whole, on cells; Membranes from stably transfected BHK cells; also called hCTR; hCT
T3 sequence (looked up): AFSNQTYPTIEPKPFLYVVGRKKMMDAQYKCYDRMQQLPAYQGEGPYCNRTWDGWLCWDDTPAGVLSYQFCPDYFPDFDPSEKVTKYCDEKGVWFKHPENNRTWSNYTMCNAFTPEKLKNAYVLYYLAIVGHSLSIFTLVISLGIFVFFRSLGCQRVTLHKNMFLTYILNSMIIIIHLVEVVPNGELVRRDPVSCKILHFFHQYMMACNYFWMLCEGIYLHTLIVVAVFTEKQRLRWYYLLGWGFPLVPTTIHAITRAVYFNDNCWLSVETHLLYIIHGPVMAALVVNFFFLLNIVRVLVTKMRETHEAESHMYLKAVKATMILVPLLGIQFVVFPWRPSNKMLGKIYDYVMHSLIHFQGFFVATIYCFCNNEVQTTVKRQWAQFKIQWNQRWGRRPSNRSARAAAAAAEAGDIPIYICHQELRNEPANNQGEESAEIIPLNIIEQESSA

B1: N^ε1-[(4S)-4-carboxy-4-(19-carboxynonadecanoylamino)butanoyl]-[Asp14,Arg17,Pro21,Pro27,Pro34,Arg35]-h-amylin (peptide)
peptide: K([γGlu-C20 diacid])CNTATCATQRLADFLRHSSPNFGAIPSSTNVGPRTY-NH2
modifications: disulfide 2-7; N-terminus assumed
SMILES: CC[C@H](C)[C@H](NC(=O)[C@H](C)NC(=O)CNC(=O)[C@H](Cc1ccccc1)NC(=O)[C@H](CC(N)=O)NC(=O)[C@@H]1CCCN1C(=O)[C@H](CO)NC(=O)[C@H](CO)NC(=O)[C@H](Cc1c[nH]cn1)NC(=O)[C@H](CCCNC(=N)N)NC(=O)[C@H](CC(C)C)NC(=O)[C@H](Cc1ccccc1)NC(=O)[C@H](CC(=O)O)NC(=O)[C@H](C)NC(=O)[C@H](CC(C)C)NC(=O)[C@H](CCCNC(=N)N)NC(=O)[C@H](CCC(N)=O)NC(=O)[C@@H](NC(=O)[C@H](C)NC(=O)[C@@H]1CSSC[C@H](NC(=O)[C@@H](N)CCCCNC(=O)CC[C@H](NC(=O)CCCCCCCCCCCCCCCCCCC(=O)O)C(=O)O)C(=O)N[C@@H](CC(N)=O)C(=O)N[C@@H]([C@@H](C)O)C(=O)N[C@@H](C)C(=O)N[C@@H]([C@@H](C)O)C(=O)N1)[C@@H](C)O)C(=O)N1CCC[C@H]1C(=O)N[C@@H](CO)C(=O)N[C@@H](CO)C(=O)N[C@H](C(=O)N[C@@H](CC(N)=O)C(=O)N[C@H](C(=O)NCC(=O)N1CCC[C@H]1C(=O)N[C@@H](CCCNC(=N)N)C(=O)N[C@H](C(=O)N[C@@H](Cc1ccc(O)cc1)C(N)=O)[C@@H](C)O)C(C)C)[C@@H](C)O
B2: N^ε1-[(4S)-4-carboxy-4-(19-carboxynonadecanoylamino)butanoyl]-[Glu14,Arg17,Pro21,Pro27,Arg34,Glu35]-h-amylin (peptide)
peptide: K([γGlu-C20 diacid])CNTATCATQRLAEFLRHSSPNFGAIPSSTNVGRETY-NH2
modifications: disulfide 2-7; N-terminus assumed
SMILES: CC[C@H](C)[C@H](NC(=O)[C@H](C)NC(=O)CNC(=O)[C@H](Cc1ccccc1)NC(=O)[C@H](CC(N)=O)NC(=O)[C@@H]1CCCN1C(=O)[C@H](CO)NC(=O)[C@H](CO)NC(=O)[C@H](Cc1c[nH]cn1)NC(=O)[C@H](CCCNC(=N)N)NC(=O)[C@H](CC(C)C)NC(=O)[C@H](Cc1ccccc1)NC(=O)[C@H](CCC(=O)O)NC(=O)[C@H](C)NC(=O)[C@H](CC(C)C)NC(=O)[C@H](CCCNC(=N)N)NC(=O)[C@H](CCC(N)=O)NC(=O)[C@@H](NC(=O)[C@H](C)NC(=O)[C@@H]1CSSC[C@H](NC(=O)[C@@H](N)CCCCNC(=O)CC[C@H](NC(=O)CCCCCCCCCCCCCCCCCCC(=O)O)C(=O)O)C(=O)N[C@@H](CC(N)=O)C(=O)N[C@@H]([C@@H](C)O)C(=O)N[C@@H](C)C(=O)N[C@@H]([C@@H](C)O)C(=O)N1)[C@@H](C)O)C(=O)N1CCC[C@H]1C(=O)N[C@@H](CO)C(=O)N[C@@H](CO)C(=O)N[C@H](C(=O)N[C@@H](CC(N)=O)C(=O)N[C@H](C(=O)NCC(=O)N[C@@H](CCCNC(=N)N)C(=O)N[C@@H](CCC(=O)O)C(=O)N[C@H](C(=O)N[C@@H](Cc1ccc(O)cc1)C(N)=O)[C@@H](C)O)C(C)C)[C@@H](C)O
B3: N^ε1-[(4S)-4-carboxy-4-(19-carboxynonadecanoylamino)butanoyl]-[Glu14,Arg17,Pro21,Pro27,His34,Glu35]-h-amylin (peptide)
peptide: K([γGlu-C20 diacid])CNTATCATQRLAEFLRHSSPNFGAIPSSTNVGHETY-NH2
modifications: disulfide 2-7; N-terminus assumed
SMILES: CC[C@H](C)[C@H](NC(=O)[C@H](C)NC(=O)CNC(=O)[C@H](Cc1ccccc1)NC(=O)[C@H](CC(N)=O)NC(=O)[C@@H]1CCCN1C(=O)[C@H](CO)NC(=O)[C@H](CO)NC(=O)[C@H](Cc1c[nH]cn1)NC(=O)[C@H](CCCNC(=N)N)NC(=O)[C@H](CC(C)C)NC(=O)[C@H](Cc1ccccc1)NC(=O)[C@H](CCC(=O)O)NC(=O)[C@H](C)NC(=O)[C@H](CC(C)C)NC(=O)[C@H](CCCNC(=N)N)NC(=O)[C@H](CCC(N)=O)NC(=O)[C@@H](NC(=O)[C@H](C)NC(=O)[C@@H]1CSSC[C@H](NC(=O)[C@@H](N)CCCCNC(=O)CC[C@H](NC(=O)CCCCCCCCCCCCCCCCCCC(=O)O)C(=O)O)C(=O)N[C@@H](CC(N)=O)C(=O)N[C@@H]([C@@H](C)O)C(=O)N[C@@H](C)C(=O)N[C@@H]([C@@H](C)O)C(=O)N1)[C@@H](C)O)C(=O)N1CCC[C@H]1C(=O)N[C@@H](CO)C(=O)N[C@@H](CO)C(=O)N[C@H](C(=O)N[C@@H](CC(N)=O)C(=O)N[C@H](C(=O)NCC(=O)N[C@@H](Cc1c[nH]cn1)C(=O)N[C@@H](CCC(=O)O)C(=O)N[C@H](C(=O)N[C@@H](Cc1ccc(O)cc1)C(N)=O)[C@@H](C)O)C(C)C)[C@@H](C)O
notes: also called compound 107
B4: N^ε1-[(4S)-4-carboxy-4-(19-carboxynonadecanoylamino)butanoyl]-[Asp14,Arg17,Pro21,Pro27,Pro34,Glu35]-h-amylin (peptide)
peptide: K([γGlu-C20 diacid])CNTATCATQRLADFLRHSSPNFGAIPSSTNVGPETY-NH2
modifications: disulfide 2-7; N-terminus assumed
SMILES: CC[C@H](C)[C@H](NC(=O)[C@H](C)NC(=O)CNC(=O)[C@H](Cc1ccccc1)NC(=O)[C@H](CC(N)=O)NC(=O)[C@@H]1CCCN1C(=O)[C@H](CO)NC(=O)[C@H](CO)NC(=O)[C@H](Cc1c[nH]cn1)NC(=O)[C@H](CCCNC(=N)N)NC(=O)[C@H](CC(C)C)NC(=O)[C@H](Cc1ccccc1)NC(=O)[C@H](CC(=O)O)NC(=O)[C@H](C)NC(=O)[C@H](CC(C)C)NC(=O)[C@H](CCCNC(=N)N)NC(=O)[C@H](CCC(N)=O)NC(=O)[C@@H](NC(=O)[C@H](C)NC(=O)[C@@H]1CSSC[C@H](NC(=O)[C@@H](N)CCCCNC(=O)CC[C@H](NC(=O)CCCCCCCCCCCCCCCCCCC(=O)O)C(=O)O)C(=O)N[C@@H](CC(N)=O)C(=O)N[C@@H]([C@@H](C)O)C(=O)N[C@@H](C)C(=O)N[C@@H]([C@@H](C)O)C(=O)N1)[C@@H](C)O)C(=O)N1CCC[C@H]1C(=O)N[C@@H](CO)C(=O)N[C@@H](CO)C(=O)N[C@H](C(=O)N[C@@H](CC(N)=O)C(=O)N[C@H](C(=O)NCC(=O)N1CCC[C@H]1C(=O)N[C@@H](CCC(=O)O)C(=O)N[C@H](C(=O)N[C@@H](Cc1ccc(O)cc1)C(N)=O)[C@@H](C)O)C(C)C)[C@@H](C)O

The binders below were run against T1, rat calcitonin receptor (assay: SPA competition vs 125I-calcitonin, membranes (Assay VIII)).

IC50 [nM]	Binder
58.5	B1
86.1	B2
33.1	B3
18.6	B4

The binders below were run against T2, rat amylin receptor (rat calcitonin …) (assay: SPA competition vs 125I-rat amylin, membranes (Assay VI)).

IC50 [nM]	Binder
0.504	B1
1.06	B2
0.958	B3
0.3	B4

Each binder was assayed against T3, human calcitonin receptor (assay: ratio of IC50 on human calcitonin receptor to IC50 on human amylin receptor).
Description: The resulting pellet was resuspended, homogenized and centrifuged (20.000 rpm, 15 min) in a buffer containing 20 mM Na-HEPES and 0.1 mM EDTA (pH 7.4, buffer 2). The resulting pellet was resuspended in buffer 2 and protein concentration was measured (BCA protein Assay, Pierce). The homogenate was kept cold during the whole procedure. The membranes were kept at −80° C. until use. The assay was performed in a 384 well Optiplate (PerkinElmer) in a total volume of 40 ul. Membranes were mixed with SPA beads. Final concentration of membranes 35 ng/μL final and SPA beads was 0.05 mg/well. Test-compounds were dissolved in DMSO and further diluted in assay buffer (50 mM Hepes, pH 7.4, 1 mM CaCl2, 5 mM MgCl₂, 0.1% OA and 0.02% Tween20). […] The final mixture was incubated with shaking at 400 rpm for 120 min at 25° C. prior to centrifugation (1500 rpm, 10 min). Samples were analyzed on TopCounter™ (Packard). The IC₅₀ was calculated using (one site binding competition analysis) GraphPad Prism5 as a measure of receptor affinity.
Membranes were prepared in the following way; the cells were rinsed with PBS and incubated with Versene for approximately 5 min before harvesting. The cells were flushed with PBS and the cell-suspension was centrifuged for 5 min at 1000 rpm. Cells were homogenized (Ultrathurrax) in a buffer containing 20 mM Na-HEPES and 10 mM EDTA (pH 7.4) and centrifuged at 20.000 rpm for 15 min. The resulting pellet was resuspended, homogenized and centrifuged (20.000 rpm, 15 min) in a buffer containing 20 mM Na-HEPES and 0.1 mM EDTA (pH 7.4, buffer 2). The resulting pellet was resuspended in buffer 2 and protein concentration was measured (BCA protein Assay, Pierce). The homogenate was kept cold during the whole procedure. The membranes were kept at −80° C. until use. Assay was performed in a 384 well Optiplate (PerkinElmer) in a total volume of 40 ul. Membranes were mixed with SPA beads.

Ratio hCT/hAmylin binding	Binder
151	B1
28.5	B2
11.1	B3
16.7	B4

Each binder was assayed against T1, rat calcitonin receptor (assay: ratio of IC50 on rat calcitonin receptor to IC50 on rat amylin receptor).

Ratio rCT/rAmylin binding	Binder
116	B1
81.1	B2
34.6	B3
62	B4
